The values that follow come from patent publication EP4669352A1.

Assay [1] addresses D8 protein (vaccinia virus).
Assay [2] concerns the target D8 protein (vaccinia virus). The assay can be described thus: BLI (Octet).
Assay [3] concerns the target D8 protein (vaccinia virus). The source holds these as a separate data set.

Read-outs that look alike come from different tables or passages of the source.

B1: MV49 (antibody, V domains shown)
VH: QVQLQESGGGLVQPGGSLRLSCAASGFTFSNSWMNWVRQAPGKGPEWVARIKRKADGETADYAASVKGRFAVSRDDSKNTLYLQINSLKSEDTAVYYCTTVPPLYDLFYRGAYYFDSWGQGVLITVSS
VL: QPVLTQPPSVSGSPGQSVTISCTGTSSDIGGYKYVSWYQQHPGTAPKLMIYEVNKRPSGVSDRFSGSKSGNTASLTISGLQAEDEADYYCSAYSTSRTYIFGPGTRVTVL
What is called Kd is the concentration at which binding is half-saturated. In the case of B1, the Kd in assay [1] is 0.011 nM.

B2: MV33 (antibody, V domains shown)
VH: EAQLVESGGGLVHPGGSLRLSCEVSGFTFSNSWMNWVRQAPGKGLECVARIIRNADGETADYAASVRGRFTISRDDPENTLYLRMKSLKTEDTAVYYCTTVPPLSHLFFHETYYFDYWGQGVLVTVSS
VL: QAARTQSPSMSASPGQSVTISCTGTRNDIGGYNYVSWYQQYPGKAPKLMIYDVSKRPSGVSDRFSGSKSGNTASLTISGLQAEDEANYYCSSYAGSNTYVFGSGTKLTIL
Broadly, the koff is the first-order rate constant of dissociation. The low end stands for a long-lived complex, the high end for a short-lived complex. Regarding B2, the Kd in assay [2] is under 0.001 nM. This molecule also gave a koff in assay [3] of under 1e-07 s⁻¹.
